This is an account of results in US20220211858A1, “TUBULAR SUPRAMOLECULAR POLYMERS” (priority 2019, published 2022).

Read-outs that look alike come from different tables or passages of the source.

Data set [1] is described as follows: Drug release of SAPDs in rat plasma. In kind it is in vitro ADME. Particulars: without GSH, read-out: remaining drugs. How it is done: The drug release in rat plasma (10%, v/v) were performed using similar protocols as those in PBS. To determine the amount of SAPDs and free CPT in each sample, 50 μL of sample was mixed with 200 μL acetonitrile (containing 0.1% TFA) and sonicated for 1 min. The supernatants were collected using centrifugation. All samples were filtered through a 0.22 μm membrane before analysis by a UPLC system (Waters ACQuity™ Ultra Performance LC) equipped with a reverse-phase column (ACQuity UPLC@BEH, C18, 1.7 μm 2.1×150 mm) and a fluorescence detector (ACQuity FLR, Ex/Em=362/430 nm). The column was flushed with a mixture of water (0.1% TFA) and acetonitrile (0.1% TFA) at 0.3 mL/min with the following gradient: 5% acetonitrile (0-1 min), 5-95% acetonitrile (1-5 min), 95% acetonitrile (5-8 min), 95-5% acetonitrile (8-9 min), and 5% acetonitrile (9-10 min). Peaks of SAPDs and free CPT were monitored and recorded, and the concentrations were calculated by comparing with standard curves.

A further data set concerns HT-29 cells. The text has this:
Antitumor efficacy study of SAPDs at the same dose on a HT-29 tumor model. […] When the averaged tumor size reached 75-95 mm^3, mice were randomly divided into six groups. […] The tumor volumes and body weights were monitored and recorded every two or three days. The tumor volume was estimated by measuring the length and width with calipers and using the equation “tumor volume=(length×width^2)/2”. Mice were euthanized once the tumor volume reached 1000 mm^3.

A short description of data set [2]: Zeta potential measurement. In kind it is physicochemical. How it is done:
TT solutions of 200 μM in 1×-DPBS buffer (pH=7.4) were prepared by directly mixing identical volumes of a 400 μM aqueous TT solution and 2×-DPBS buffer (pH=7.4). In some embodiments, solutions at a concentration of 2 mM in PBS buffer (pH=7.4) were prepared and aged overnight prior to zeta potential measurement. TT solutions of 200 μM in 1×-DPBS buffer (pH=5.0) were prepared by mixing identical volumes of a 400 μM aqueous TT solution and 2×-DPBS buffer (pH=5.0), which was pretreated with 6 M HCl. The zeta potential measurements were performed on a Zetasizer Nano ZS90 (Malvern Instruments Ltd., UK). The prepared solutions were loaded in capillary cells and equilibrated for 2 min prior to measurement. The average values and their standard deviations are calculated from three replicate measurements. The zeta potential of the assembled structures was obtained by measuring the electrophoretic movement of the nanostructures under the applied electric field, where the movement velocity is determined by phase analysis light scattering. Variations of the zeta potential value over time were determined by measuring the solutions at different aging time points (1, 2, 4 and 7 days) and are plotted in FIG. 10.

Data set [3] is described as follows: Drug release and chemical stability of SAPDs in PBS with or without GSH. It is filed as physicochemical. To be noted: for prodrug degraded / conjugates remaining intact: 200 μM; for prodrug degraded: 37° C., 10 mM GSH, within 5 min; for conjugates remaining intact / remaining drugs: without GSH; for conjugates remaining intact: 120 h; for remaining drugs: 96 h. How it is done:
Drug release and chemical stability studies of SAPDs. Drug release studies of four SAPDs were performed at a concentration of 200 μM in PBS buffer with or without the reducing agent glutathione (GSH). Briefly, 400 μM stock solutions of SAPDs in water were prepared and aged overnight. Stock solutions containing 2×PBS (20 mM) with or without 20 mM GSH were prepared 1 h before the experiment, and the pH was tuned to 7.4 with NaOH. The prodrug solutions were further diluted to 200 μM with 20 mM (2×) PBS buffer with or without GSH (20 mM) to give final solutions of 200 μM prodrug, 10 mM PBS and with or without 10 mM GSH. Three replicates of each SAPD were prepared with or without GSH and were incubated at 37° C. Samples with GSH were collected at 0 min, 5 min, 10 min, 15 min, 30 min, 1 h and 2 h, while samples without GSH were collected at 0 h, 6 h, 12 h, 24 h, 48 h, 72 h, 96 h and 120 h. To prevent further reaction after sample collection, the collected samples (50 μL each point) were acidified by adding 0.2 μL of 2M HCl, frozen with liquid nitrogen and stored at −30° C. The release profile was determined by analytical RP-HPLC using the following conditions: Varian Pursuit XRs C18 (5 μm, 150×4.6 mm); 362 nm detection wavelength; 1 mL/min flow rate; the gradient began at 15% to 85% acetonitrile containing 0.1% TFA by 15 min and back to initial gradient at 18 min. The calculated data points were plotted as a percentage of the total CPT concentration against time. Representative HPLC traces over time were also integrated for comparison.

The nature of data set [4]: TEM / cryo-TEM imaging of self-assembled nanostructures (dimensions). It is filed as physicochemical. Particulars: 2 mM in water.
Data set [5] is described as follows: Critical micellization concentration (CMC) via Nile Red encapsulation. To be noted: SAPDs, PBS buffer, Nile Red method. It is filed as physicochemical. How it is done:
Nile Red is a hydrophobic, solvatochromic dye that fluoresces intensely upon exposure to hydrophobic environments compared with its strongly quenched and red-shifted fluorescence in aqueous environments. The CMC of the TTs was determined by incubating these molecules at various concentrations with a fixed content of Nile Red. 10 μL of a 1 mM Nile Red stock solution in acetone was added to each microcentrifuge tube to be used, with the acetone allowed to evaporate in a dark area. TT solutions of various concentrations were subsequently added to the Nile Red containing tubes and equilibrated overnight. The emission spectrum for each sample was then recorded on a Fluorolog spectrofluorometer (Horiba Jobin Yvon Inc., Edison, N.J.), acquiring between 580 and 720 nm with an excitation wavelength of 550 nm.
CMC Measurement of SAPDs of TT1. We next assessed the CMC values for each of the designed SAPDs in aqueous solution. […] Experimentally, the CAC is often measured using spectrometry techniques such as circular dichroism (CD) to reveal the presence of intermolecular associations and packing at a much lower concentration. In the case reported here, the CMC values were measured in the PBS buffer using Nile Red as a probe, which fluoresces intensely in hydrophobic environments and is strongly quenched and red-shifted in aqueous media. […]

Setting [6] is: SAPDs 10 mg/kg i.v. days 1, 5, 9, 13, irinotecan 100 mg/kg i.p. days 1, 8, 15.
Where [7] appears, read: day 25, SAPDs 10 mg/kg (CPT equivalent) i.v. days 1, 5, 9, 13, irinotecan 100 mg/kg i.p. days 1, 8, 15.

The fraction remaining is what is left of the initial amount, in per cent. Take `CC[C@]1(OC(=O)OCCSSC[C@@H](NC(C)=O)C(=O)N[C@@H](CCCCNC(=O)[C@@H](CSSCCOC(=O)O[C@]2(CC)C(=O)OCc3c2cc2n(c3=O)Cc3cc4ccccc4nc3-2)NC(C)=O)C(=O)N[C@@H](CCCCNC(=O)CCOCCOCCOCCOCCOC)C(=O)N[C@@H](CCCCNC(=O)CCOCCOCCOCCOCCOC)C(=O)N[C@@H](CCCCNC(=O)CCOCCOCCOCCOCCOC)C(=O)N[C@@H](CCCCNC(=O)CCOCCOCCOCCOCCOC)C(N)=O)C(=O)OCc2c1cc1n(c2=O)Cc2cc3ccccc3nc2-1` [SAPD 2]: the fraction remaining at 96 h in data set [1] (rat plasma (10%, v/v)) is 78%. The median survival with HT-29 cells (setting [6]) was determined as 46 days. Besides, the mean tumor volume with HT-29 cells (setting [7]) is reported as 255 mm^3. This compound gave a ζ-Potential in data set [2] (assembled SAPDs in PBS buffer) of −7.4 mV. Besides, in data set [3], the prodrug degraded is 45%, the conjugates remaining intact came out at 87% and the remaining drugs is on record as 86%. Moreover, the “length of filaments (majority)” value in data set [4] is “less than 400 nm”. The same compound returned a CMC in data set [5] of 10.1 µM.
Consider `CC[C@]1(OC(=O)OCCSSC[C@@H](NC(C)=O)C(=O)N[C@@H](CCCCNC(=O)[C@@H](CSSCCOC(=O)O[C@]2(CC)C(=O)OCc3c2cc2n(c3=O)Cc3cc4ccccc4nc3-2)NC(C)=O)C(=O)N[C@@H](CCCCNC(=O)CCOCCOCCOCCOCCOC)C(=O)N[C@@H](CCCCNC(=O)CCOCCOCCOCCOCCOC)C(=O)N[C@@H](CCCCNC(=O)CCOCCOCCOCCOCCOC)C(=O)N[C@@H](CCCCNC(=O)CCOCCOCCOCCOCCOC)C(=O)N[C@@H](CCCCNC(=O)CCOCCOCCOCCOCCOC)C(=O)N[C@@H](CCCCNC(=O)CCOCCOCCOCCOCCOC)C(N)=O)C(=O)OCc2c1cc1n(c2=O)Cc2cc3ccccc3nc2-1` [SAPD 3], for which, in data set [1] (rat plasma (10%, v/v)), the amount remaining at 96 h is 15%. For the same compound, in the data set with HT-29 cells (mouse, in vivo), the mean tumor volume turned out to be 304 mm^3 and the median survival stood at 42 days. This compound yielded a ζ-Potential in data set [2] (assembled SAPDs in PBS buffer) of −6.5 mV. Further, in data set [3], the prodrug degraded is 93% and the remaining drugs is listed as 63%.
In the case of `CC[C@]1(OC(=O)OCCSSC[C@@H](NC(C)=O)C(=O)N[C@@H](CCCCNC(=O)[C@@H](CSSCCOC(=O)O[C@]2(CC)C(=O)OCc3c2cc2n(c3=O)Cc3cc4ccccc4nc3-2)NC(C)=O)C(=O)N[C@@H](CCCCNC(=O)CCOCCOCCOCCOCCOC)C(=O)N[C@@H](CCCCNC(=O)CCOCCOCCOCCOCCOC)C(=O)N[C@@H](CCCCNC(=O)CCOCCOCCOCCOCCOC)C(=O)N[C@@H](CCCCNC(=O)CCOCCOCCOCCOCCOC)C(=O)N[C@@H](CCCCNC(=O)CCOCCOCCOCCOCCOC)C(=O)N[C@@H](CCCCNC(=O)CCOCCOCCOCCOCCOC)C(=O)N[C@@H](CCCCNC(=O)CCOCCOCCOCCOCCOC)C(=O)N[C@@H](CCCCNC(=O)CCOCCOCCOCCOCCOC)C(N)=O)C(=O)OCc2c1cc1n(c2=O)Cc2cc3ccccc3nc2-1` [SAPD 4], in data set [1] (rat plasma (10%, v/v)), the fraction remaining at 96 h came to 18%. Moreover, in the data set with HT-29 cells (mouse, in vivo), the mean tumor volume is given as 286 mm^3 and the median survival was 47 days. This compound also had a ζ-Potential in data set [2] (assembled SAPDs in PBS buffer) of −5.9 mV. In addition, in data set [3], the prodrug degraded is reported as 92% and the remaining drugs worked out at 61%.
For `CC[C@]1(OC(=O)OCCSSC[C@@H](NC(C)=O)C(=O)N[C@@H](CCCCNC(=O)[C@@H](CSSCCOC(=O)O[C@]2(CC)C(=O)OCc3c2cc2n(c3=O)Cc3cc4ccccc4nc3-2)NC(C)=O)C(=O)N[C@@H](CCCCNC(=O)CCOCCOCCOCCOCCOC)C(=O)N[C@@H](CCCCNC(=O)CCOCCOCCOCCOCCOC)C(N)=O)C(=O)OCc2c1cc1n(c2=O)Cc2cc3ccccc3nc2-1` [TT 1], the fraction remaining at 96 h in data set [1] turned out to be 89%. Moreover, the “toxicity according to body weight change” value in the data set with HT-29 cells (10 mg/kg i.v.) is listed as “most toxicity”. This compound gave a median survival in the data set on HT-29 cells (setting [6]) of 56 days. Further, in the data set with HT-29 cells (setting [7]), the mean tumor volume is reported as 60 mm^3. This compound displayed a ζ-Potential in data set [2] (1×-DPBS buffer, pH 5.0, 200 μM) of −5 mV. This compound came in with a ζ-Potential in data set [2] (1×-DPBS buffer, pH 7.4, 200 μM) of −5 mV. The compound further returned a ζ-Potential in data set [2] (assembled SAPDs in PBS buffer) of −6.5 mV. For the same compound, in data set [3], the prodrug degraded is 8%, the conjugates remaining intact is recorded as 96% and the remaining drugs worked out at 95%. For the same compound, in data set [4], the “diameter of supramolecular filaments” value is reported as “around 9 nm”. The compound also returned a CMC in data set [5] of 2.7 µM.
